Results as given in US20160362487A1 (Regeneron, published 2016).
Substitutions are numbered along the chain they refer to. Names may count otherwise.

T1: human IL-33 (R&D Systems, #3625-IL-010/CF) (human, UniProt O95760 112-270)
T1 construct: Commercial recombinant protein; also called hIL-33; interleukin-33
T1 sequence (looked up): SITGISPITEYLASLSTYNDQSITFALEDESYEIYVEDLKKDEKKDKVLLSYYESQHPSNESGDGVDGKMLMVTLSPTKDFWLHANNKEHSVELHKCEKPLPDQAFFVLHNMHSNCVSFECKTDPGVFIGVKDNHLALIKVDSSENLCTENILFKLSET

T2: cynomolgus monkey IL-33 expressed with a C-terminal hexahistidine tag (cynomolgus monkey)
T2 construct: also called MfIL-33-6His; Mf-IL-33-6His
T2 chain: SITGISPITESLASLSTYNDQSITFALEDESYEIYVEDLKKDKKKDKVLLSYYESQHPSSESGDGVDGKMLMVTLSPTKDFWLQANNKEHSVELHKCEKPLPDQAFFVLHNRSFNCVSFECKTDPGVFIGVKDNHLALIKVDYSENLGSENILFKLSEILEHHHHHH

B1: H4H9671P (antibody, human IgG4, V domains shown)
VH: EVQLVESGGGLVQPGGSLRLSCAASGFTLRSYFMTWVRQVPGKGLEGVSAISGISGGTYYTDSVKGRFTISRDNSKNTLFLQMNSLRAEDTAVYFCARTVYSSSYYGGFQHWGQGTLVTVSS
VL: DIQMTQSPSSVSVSVGDRVTITCRASQGISSWLAWYQQKPGKAPKLLIYVASSLQSGVPSRFSGSGSGTDFTLTISSLQPEDFATYYCQQTNSFPLTFGGGTKVEIK
notes: Human IgG4 Fc (H4H)
B2: H1M9559N (antibody, mouse IgG1, V domains shown)
VH: QVQLVESGGGVVQPGRSLRLSCAASGFTFSSYGMHWVRQAPGKGLEWVAVIWYDGRNKYYTDSVKGRFTISRDNSKNTLYLQMDSLRAEDTAVYYCARERYISSYYGGFDPWGQGALVTVSS
VL: B1 VL with V13A, L46V, V50A, T91A, L96F, G100P, V104L, E105D
notes: Human variable domains, mouse IgG1 Fc (H1M)
B3: H4H9675P (antibody, human IgG4, V domains shown)
VH: EVQLVESGGNLEQPGGSLRLSCTASGFTFSRSAMNWVRRAPGKGLEWVSGISGSGGRTYYADSVKGRFTISRDNSKNTLYLQMNSLSAEDTAAYYCAKDSYTTSWYGGMDVWGHGTTVTVSS
VL: B1 VL with V13A, S30F, V50A, T85I, T91A, F94V, L96I, G100Q, K103R, V104L
notes: Human IgG4 Fc (H4H)

What follows are binders tested against T1, human IL-33 (R&D Systems, …) (assay: SPR 37C, pH6.0 chase, mAb captured).
Description: (§1) Equilibrium dissociation constants (KD values) for IL-33 binding to purified anti-IL-33 monoclonal antibodies were determined using a real-time surface plasmon resonance biosensor using a Biacore 4000 instrument. The Biacore sensor surface was first derivatized by amine coupling with either a polyclonal rabbit anti-mouse antibody (GE, # BR-1008-38) or with a monoclonal mouse anti-human Fc antibody (GE, # BR-1008-39) to capture anti-IL-33 monoclonal antibodies expressed with mouse or with human IgG4 constant regions, respectively. All Biacore binding studies were performed in 0.01M ADA pH 7.4, 0.15M NaCl, 3 mM EDTA, and 0.05% v/v Surfactant Tween-20 (ABS-ET running buffer). […] Association of either hIL-33 or MfIL-33-6His to the captured monoclonal antibody was monitored for 4 minutes and their dissociation in ABS-ET running buffer was monitored for 10 minutes. The effect of reduced pH on the binding of each anti-IL-33 antibody to either hIL-33 or MfIL-33-6His was studied using an in-line pH chase assay format in 0.01M ADA pH 6.0, 0.15M NaCl, 3 mM EDTA, and 0.05% v/v Surfactant Tween-20 (ABS-ET pH6 buffer). To achieve this, association of either hIL-33 or MfIL-33-6His to the captured monoclonal antibody was monitored for 4 minutes in ABS-ET running buffer. Following a 30 second dissociation of either hIL-33 or MfIL-33-6His in ABS-ET running buffer, ABS-ET pH6 buffer was injected for 3 minutes, and the analyte dissociation under the low-pH conditions was measured. All the binding kinetic experiments were performed at both 25° C. and 37° C. Kinetic association (kₐ) and dissociation (kd) constants were determined by fitting the real-time sensorgrams to a 1:1 binding model using Scrubber 2.0c curve fitting software. Binding dissociation equilibrium constants (KD) and dissociative half-lives (t½) were calculated from the kinetic rate constants as: […]

| koff | t½ | t½ Ratio (pH 7.4/pH 6.0) | Binder |
| --- | --- | --- | --- |
| 0.00585 s⁻¹ | 2 min | 5.1 | B1 |
| 0.000992 s⁻¹ | 12 min | 1 | B2 |
| 0.00463 s⁻¹ | 2 min | 5.3 | B3 |

Target: T2, cynomolgus monkey IL-33 expressed with …
Assay: SPR 37C, pH6.0 chase, mAb captured
Description: as §1

| koff | t½ | t½ Ratio (pH 7.4/pH 6.0) | Binder |
| --- | --- | --- | --- |
| 0.00819 s⁻¹ | 1.4 min | 1.3 | B1 |
| 0.00307 s⁻¹ | 4 min | 0.9 | B2 |
| 0.00735 s⁻¹ | 1.6 min | 1.5 | B3 |

Target: T2, cynomolgus monkey IL-33 expressed with …
Assay: BLI; mAb-1 on captured MfIL-33-6His
Description: Binding competition between a panel of different anti-IL-33 monoclonal antibodies was determined using a real time, label-free bio-layer interferometry assay on an Octet® HTX biosensor (ForteBio, A Division of Pall Life Sciences). The experiment was performed at 25° C. using a buffer of 0.01M HEPES pH7.4, 0.15M NaCl, 3 mM EDTA, 0.05% v/v Surfactant Tween-20, and 0.1 mg/ml BSA (HBS-ET kinetics buffer) with the plate shaking at a speed of 1000 rpm. […] The antigen-captured biosensors were then saturated with a first anti-IL-33 monoclonal antibody (subsequently referred to as mAb-1) by immersion into wells containing 50 μg/mL solution of mAb-1 for 5 minutes. The biosensors were then dipped into wells containing a 50 μg/mL solution of a second anti-IL-33 monoclonal antibody (subsequently referred to as mAb-2) for 4 minutes. The biosensors were washed in HBS-ET kinetics buffer in between every step of the experiment. The real-time binding response was monitored during the experiment, and the maximum binding response for each binding step was recorded. The response of mAb-2 binding to MfIL-33-6His pre-complexed with mAb-1 was measured, and competitive/non-competitive behavior of different anti-IL-33 monoclonal antibodies with respect to each other was determined.

| mAb-1 Binding (nm) | Binder |
| --- | --- |
| 0.58 nm | B1 |
| 0.5 nm | B2 |
| 0.52 nm | B3 |

Each binder was assayed against T1, human IL-33 (R&D Systems, …) (assay: BLI; hIL-33 pre-mixed with mAb-2 Isotype control 1).
Description: (§2) Binding competition between a panel of different anti-IL-33 monoclonal antibodies was determined using a real time, label-free bio-layer interferometry assay on an Octet® HTX biosensor (ForteBio, A Division of Pall Life Sciences). The experiment was performed at 25° C. using a buffer of 0.01M HEPES pH7.4, 0.15M NaCl, 0.05% v/v Surfactant Tween-20, and 0.1 mg/ml BSA (HBS-ET kinetics buffer) with the plate shaking at a speed of 1000 rpm. To assess whether two antibodies were able to compete with one another for binding to human IL-33, a pre-mix assay format was used where 100 nM of human IL-33 (R&D Systems; #3625-IL-010/CF) was pre-mixed with 500 nM of different anti-IL-33 monoclonal antibodies (subsequently referred to as mAb-2) for at least 2 hours prior to running the binding competition assay. […] Following the capture step, unoccupied anti-mouse Fc polyclonal antibody and anti-human Fc polyclonal antibody on the Octet biosensors were saturated by submerging them for 4 minutes into wells containing 200 μg/mL of a non-specific monoclonal antibody with a mouse Fc or with a human Fc, respectively. Finally, the Octet biosensors were immersed for 4 minutes into wells containing the pre-mixed samples of 100 nM of human IL-33 and 500 nM of mAb-2. At the end of each cycle, the non-covalently captured anti-IL-33 antibodies along with the bound pre-complex of human IL-33 and mAb-2 were removed from the biosensors using three alternate 20 second immersions into 10 mM HCl followed by submerging into HBS-ET kinetics buffer. The biosensors were washed in HBS-ET kinetics buffer in between every step of the experiment. The real-time binding response was monitored during the binding events, and the binding response (in units of nm) at the end of every step was recorded.

| mAb-1 Binding to the Pre-complex of mAb-2 & hIL-33 | Binder |
| --- | --- |
| 0.13 nm | B1 |
| 0.06 nm | B2 |
| 0.13 nm | B3 |

Each binder was assayed against T1, human IL-33 (R&D Systems, …) (assay: BLI; hIL-33 pre-mixed with mAb-2 Isotype control 2).
Description: as §2

| mAb-1 Binding to the Pre-complex of mAb-2 & hIL-33 | Binder |
| --- | --- |
| 0.07 nm | B1 |
| 0.11 nm | B2 |
| 0.11 nm | B3 |
